Laboratory results from the supplement of paper PMC9112550, “Optimization of the antimicrobial peptide Bac7 by deep mutational scanning” (BMC Biology, 2022).

test system: Escherichia coli TOP10; experiment: shrunken log2 fold change of peptide-encoding DNA abundance (4.5 h post-induction vs induction); higher = less antimicrobial activity (less host growth inhibition); conditions: time post-induction: 4.5 h; library: site-saturation at positions 5, 18, 19, 20
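Further: peptides expressed intracellularly from a pBAD plasmid library in pooled LB shake-flask culture, induced with 0.3% L-arabinose, DNA abundance read by NGS, three biological replicates, DESeq2 with apeglm shrinkage.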

Row | Sequence | shrunken log2 fold change
1 | RRIRKRPPRLPRPRPRPVTVPRP | -0.0834
2 | RRIRKRPPRLPRPRPRPVWTPRP | 0.485
3 | RRIRKRPPRLPRPRPRPWACPRP | 0.0099
4 | RRIRKRPPRLPRPRPRPWAFPRP | -0.016
5 | RRIRKRPPRLPRPRPRPWAPPRP | 0.0466
6 | RRIRKRPPRLPRPRPRPWFMPRP | -0.202
7 | RRIRKRPPRLPRPRPRPWFQPRP | -0.0934
8 | RRIRKRPPRLPRPRPRPWGVPRP | 0.291
9 | RRIRKRPPRLPRPRPRPWHRPRP | -0.0754
10 | RRIRKRPPRLPRPRPRPWIDPRP | -0.00174
11 | RRIRKRPPRLPRPRPRPWIPPRP | 0.0372
12 | RRIRKRPPRLPRPRPRPWLGPRP | 1.57
13 | RRIRKRPPRLPRPRPRPWLHPRP | 0.24
14 | RRIRKRPPRLPRPRPRPWLRPRP | 0.143
15 | RRIRKRPPRLPRPRPRPWNVPRP | 0.0194
16 | RRIRKRPPRLPRPRPRPWQWPRP | 0.0199
17 | RRIRKRPPRLPRPRPRPWRLPRP | -0.0807
18 | RRIRKRPPRLPRPRPRPWRYPRP | -0.00865
19 | RRIRKRPPRLPRPRPRPWSFPRP | 0.121
20 | RRIRKRPPRLPRPRPRPWSIPRP | -0.304
21 | RRIRKRPPRLPRPRPRPWSMPRP | -0.0905
22 | RRIRKRPPRLPRPRPRPWTLPRP | 0.00115
23 | RRIRKRPPRLPRPRPRPWVQPRP | 0.0916
24 | RRIRKRPPRLPRPRPRPWWRPRP | -0.108
25 | RRIRKRPPRLPRPRPRPWYAPRP | -0.132

Row | Sequence | shrunken log2 fold change
26 | RRIRKRPPRLPRPRPRPWYCPRP | -0.339
27 | RRIRKRPPRLPRPRPRPYCYPRP | -0.182
28 | RRIRKRPPRLPRPRPRPYDAPRP | -0.252
29 | RRIRKRPPRLPRPRPRPYDIPRP | -0.119
30 | RRIRKRPPRLPRPRPRPYDPPRP | 0.0113
31 | RRIRKRPPRLPRPRPRPYDTPRP | -0.246
32 | RRIRKRPPRLPRPRPRPYEAPRP | -0.325
33 | RRIRKRPPRLPRPRPRPYFMPRP | -0.501
34 | RRIRKRPPRLPRPRPRPYFQPRP | -0.265
35 | RRIRKRPPRLPRPRPRPYGLPRP | 0.0165
36 | RRIRKRPPRLPRPRPRPYHEPRP | -0.112
37 | RRIRKRPPRLPRPRPRPYKGPRP | -0.185
38 | RRIRKRPPRLPRPRPRPYLTPRP | -0.413
39 | RRIRKRPPRLPRPRPRPYMVPRP | -0.211
40 | RRIRKRPPRLPRPRPRPYNMPRP | -0.352
41 | RRIRKRPPRLPRPRPRPYNYPRP | -0.898
42 | RRIRKRPPRLPRPRPRPYPWPRP | -0.4
43 | RRIRKRPPRLPRPRPRPYQLPRP | -0.0193
44 | RRIRKRPPRLPRPRPRPYRAPRP | -0.117
45 | RRIRKRPPRLPRPRPRPYRCPRP | -0.12
46 | RRIRKRPPRLPRPRPRPYREPRP | -0.0243
47 | RRIRKRPPRLPRPRPRPYSRPRP | -0.0735
48 | RRIRKRPPRLPRPRPRPYTEPRP | -0.295
49 | RRIRKRPPRLPRPRPRPYVFPRP | -0.0884
50 | RRIRKRPPRLPRPRPRPYVLPRP | -0.234

Row | Sequence | shrunken log2 fold change
51 | RRIRKRPPRLPRPRPRPYWSPRP | -0.153
52 | RRIRKRPPRLPRPRPRPYYNPRP | -0.197
53 | RRIRLRPPRLPRPRPRPAALPRP | 0.182
54 | RRIRLRPPRLPRPRPRPAAPPRP | 0.545
55 | RRIRLRPPRLPRPRPRPAARPRP | 0.453
56 | RRIRLRPPRLPRPRPRPACKPRP | 0.00454
57 | RRIRLRPPRLPRPRPRPADGPRP | -0.082
58 | RRIRLRPPRLPRPRPRPADQPRP | 0.0203
59 | RRIRLRPPRLPRPRPRPADVPRP | -0.0469
60 | RRIRLRPPRLPRPRPRPAEGPRP | 0.242
61 | RRIRLRPPRLPRPRPRPAESPRP | 0.197
62 | RRIRLRPPRLPRPRPRPAEVPRP | -0.193
63 | RRIRLRPPRLPRPRPRPAGAPRP | 0.632
64 | RRIRLRPPRLPRPRPRPAGNPRP | 0.116
65 | RRIRLRPPRLPRPRPRPAGRPRP | 0.0831
66 | RRIRLRPPRLPRPRPRPAGWPRP | 0.712
67 | RRIRLRPPRLPRPRPRPAHYPRP | -0.147
68 | RRIRLRPPRLPRPRPRPALLPRP | 0.295
69 | RRIRLRPPRLPRPRPRPAMNPRP | -0.397
70 | RRIRLRPPRLPRPRPRPAMTPRP | -0.113
71 | RRIRLRPPRLPRPRPRPANRPRP | -0.133
72 | RRIRLRPPRLPRPRPRPAPDPRP | 0.215
73 | RRIRLRPPRLPRPRPRPAPKPRP | 0.659
74 | RRIRLRPPRLPRPRPRPAQPPRP | 0.0855
75 | RRIRLRPPRLPRPRPRPAQTPRP | -0.00496
